According to patent US20160060356A1 (Hoffmann-La Roche, published 2016):
Where a chain is given by its changes, count along the chain named. Each block holds one binder with its values, some of them ahead of it.

Tests used:
[1] = molecular target: T1, human Fibroblast Activation Protein (FAP) on cells or in tissue (human, UniProt Q12884 1-760); assay: FACS on HEK293 cells stably transfected with human FAP
T1 construct: whole, on cells; Expressed on stably transfected HEK293 cells, on the human fibroblast cell line GM05389, on human tumor cell lines and in human tumor tissue sections; also called human FAP; hFAP

[2] = molecular target: T2, murine Fibroblast Activation Protein (FAP) on stably transfected HEK293 cells (mouse, UniProt P97321 1-761); assay: FACS on HEK293 cells stably transfected with murine FAP
T2 construct: whole, on cells; also called murine FAP

[3] = molecular target: T3, human Fibroblast Activation Protein (FAP) ectodomain with C-terminal poly-lysine and 6xHis-tag (human, UniProt Q12884 27-760); assay: SPR (Biacore T100), His-tagged FAP captured by anti-His antibody, IgG as analyte (avidity)
T3 construct: Recombinant soluble antigen used in selections, ELISA and SPR; also called hu FAP; human FAP
Procedure: (§1) For immobilization carboxymethylated dextran biosensor chips (CMS, GE Healthcare) were activated with N-ethyl-N′-(3-dimethylaminopropyl)-carbodiimide hydrochloride (EDC) and N-hydroxysuccinimide (NHS) according to the supplier's instructions. The Penta His antibody was diluted with 10 mM sodium acetate, pH 5, to 40 μg/ml before injection at a flow rate of 10 μl/minute to achieve approximately 9000 response units (RU) of coupled protein. Following the injection of the ligand, 1 M ethanolamine was injected to block unreacted groups.
(§2) For kinetics measurements, human, mouse or Cynomolgus FAP extracellular domain was injected at 10 μl/min at 10 nM for 20 s (for Fab fragments) or at 20 nM for 25 s (for IgG) and was captured via its His tag by the immobilized penta His antibody. […] The following parameters were applied: Association time 180 s, dissociation 300 s (for Fab) or 900 s (for IgG), regeneration with 10 mM glycine pH 2 for 60 s between each cycle. Association rates (kₒₙ) and dissociation rates (koff) were calculated using a simple one-to-one Langmuir binding model (BIACORE® T100 Evaluation Software version 1.1.1) by simultaneously fitting the association and dissociation sensorgrams (model parameters were local Rmax and RI=0). The equilibrium dissociation constant (KD) was calculated as the ratio koff/kₒₙ.

[4] = molecular target: T4, murine Fibroblast Activation Protein (FAP) ectodomain with C-terminal poly-lysine and 6xHis-tag (mouse, UniProt P97321 27-761); assay: as above
T4 construct: also called mu FAP; murine FAP
Procedure: as §1, §2

[5] = molecular target: T5, Cynomolgus Fibroblast Activation Protein (FAP) ectodomain with C-terminal poly-lysine and 6xHis-tag (cynomolgus monkey, UniProt Q12884 27-760 (human entry)); assay: as above
T5 construct: also called cyno FAP; Cynomolgus FAP extracellular domain
Procedure: as §1, §2

[6] = molecular target: T6, HER2 on stably transfected HEK293 cells (UniProt P04626 23-1255, limits assumed); assay: FACS on HEK293 cells stably expressing HER2, PE goat anti-human IgG Fc gamma detection
T6 construct: whole, on cells

[7] = molecular target: T7, DPPIV (CD26) on stably transfected HEK293 cells (UniProt P27487 1-766); assay: FACS on HEK293 cells stably expressing DPPIV, PE goat anti-human IgG Fc gamma detection
T7 construct: whole, on cells; also called dipeptidyl peptidase IV

[8] = molecular target: T3, human Fibroblast Activation Protein …; assay: SPR (Biacore T100), His-tagged FAP captured by anti-His antibody, Fab as analyte
Procedure: as §1, §2

[9] = molecular target: T4, murine Fibroblast Activation Protein …; assay: as above
Procedure: as §1, §2

[10] = molecular target: T5, Cynomolgus Fibroblast Activation …; assay: as above
Procedure: as §1, §2

B1: 4G8 human IgG1 antibody (antibody, V domains shown)
VH: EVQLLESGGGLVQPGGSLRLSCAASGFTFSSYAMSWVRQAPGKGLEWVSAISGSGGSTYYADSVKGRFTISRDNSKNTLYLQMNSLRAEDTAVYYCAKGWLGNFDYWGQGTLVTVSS
VL: EIVLTQSPGTLSLSPGERATLSCRASQSVSRSYLAWYQQKPGQAPRLLIIGASTRATGIPDRFSGSGSGTDFTLTISRLEPEDFAVYYCQQGQVIPPTFGQGTKVEIK
notes: Wild-type and glycoengineered versions were used in the ADCC assay; also called IgG 4G8; 4G8 IgG
EC50 [1]: 5 nM
EC50 [2]: 1.7 nM
Kd [3]: 0.051 nM
Kd [4]: 0.001 nM
Kd [5]: 0.059 nM
binding result [6]: no binding (tested: 30 µg/ml)
binding result [7]: no binding (tested: 30 µg/ml)

B3: 3F2 human IgG1 antibody (antibody, V domains shown)
VH: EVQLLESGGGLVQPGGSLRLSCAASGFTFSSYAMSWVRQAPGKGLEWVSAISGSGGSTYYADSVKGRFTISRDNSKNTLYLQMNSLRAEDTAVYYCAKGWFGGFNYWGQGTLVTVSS
VL: B1 VL with S30T, R31S, I50N, G51V, A52G, T54R, Q93I, V94M, I95L
notes: Wild-type and glycoengineered versions were used in the ADCC assay; also called IgG 3F2; 3F2 IgG
EC50 [1]: 4.8 nM
EC50 [2]: 1 nM
Kd [3]: 0.039 nM
Kd [4]: 0.029 nM
Kd [5]: 0.042 nM
binding result [6]: no binding (tested: 30 µg/ml)
binding result [7]: no binding (tested: 30 µg/ml)

B5: 4B3 human IgG1 antibody (antibody, V domains shown)
VH: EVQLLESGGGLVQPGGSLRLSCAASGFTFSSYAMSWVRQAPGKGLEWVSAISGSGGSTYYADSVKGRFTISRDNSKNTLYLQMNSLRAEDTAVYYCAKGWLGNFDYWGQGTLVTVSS
VL: B1 VL with R31S, S32N, I50Y, S53Y, T54I
notes: Human IgG1 format; also called 4B3 IgG
EC50 [1]: 5.5 nM
EC50 [2]: 1.6 nM
binding result [6]: no binding (tested: 30 µg/ml)
binding result [7]: no binding (tested: 30 µg/ml)

Other lines, results leading:

Kd [8]: 13 nM
Kd [9]: 14 nM
Kd [10]: 11 nM
B2: 3F2 Fab fragment (Fab, V domains shown)
VH: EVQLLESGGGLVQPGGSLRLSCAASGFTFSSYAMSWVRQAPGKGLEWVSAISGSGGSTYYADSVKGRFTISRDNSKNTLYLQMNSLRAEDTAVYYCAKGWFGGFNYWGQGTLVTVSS
VL: B1 VL with S30T, R31S, I50N, G51V, A52G, T54R, Q93I, V94M, I95L
notes: also called Fab fragment 3F2; clone 3F2

Kd [8]: 74 nM
Kd [9]: ≤ 7 nM
Kd [10]: 56 nM
B4: 4G8 Fab fragment (Fab, V domains shown)
VH: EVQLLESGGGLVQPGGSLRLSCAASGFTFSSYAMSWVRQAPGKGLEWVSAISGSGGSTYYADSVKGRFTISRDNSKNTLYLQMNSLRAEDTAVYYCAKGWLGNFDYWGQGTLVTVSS
VL: B1 VL
notes: also called Fab fragment 4G8; clone 4G8
